Laboratory results reported in patent US20260167721A1 (ABLEXIS, published 2026).
Values belong to the binder of their own block, whether it stands above or below them.

Columns and labels:
recombinant CD3 proteins [1] = molecular target: T1, recombinant CD3 proteins (UniProt P07766 23-126); assay: Octet BLI, recombinant CD3; Full R^2 0.9829
T1 construct: elsewhere it uses human CD3 E/D and E/G heterodimers

recombinant CD3 proteins [2] = molecular target: T1, recombinant CD3 proteins; assay: Octet BLI, recombinant CD3; Full R^2 0.9872
recombinant CD3 proteins [3] = molecular target: T1, recombinant CD3 proteins; assay: Octet BLI, recombinant CD3; Full R^2 0.8423
recombinant CD3 proteins [4] = molecular target: T1, recombinant CD3 proteins; assay: Octet BLI, recombinant CD3; Full R^2 0.5677
recombinant CD3 proteins [5] = molecular target: T1, recombinant CD3 proteins; assay: Octet BLI, recombinant CD3; Full R^2 0.9966
recombinant CD3 proteins [6] = molecular target: T1, recombinant CD3 proteins; assay: Octet BLI, recombinant CD3; Full R^2 0.9599
recombinant CD3 proteins [7] = molecular target: T1, recombinant CD3 proteins; assay: Octet BLI, recombinant CD3; Full R^2 0.998
recombinant CD3 proteins [8] = molecular target: T1, recombinant CD3 proteins; assay: Octet BLI, recombinant CD3; Full R^2 0.9986
recombinant CD3 proteins [9] = molecular target: T1, recombinant CD3 proteins; assay: Octet BLI, recombinant CD3; Full R^2 0.9688
recombinant CD3 proteins [10] = molecular target: T1, recombinant CD3 proteins; assay: Octet BLI, recombinant CD3; Full R^2 0.9968

T1 sequence (P07766 23-126): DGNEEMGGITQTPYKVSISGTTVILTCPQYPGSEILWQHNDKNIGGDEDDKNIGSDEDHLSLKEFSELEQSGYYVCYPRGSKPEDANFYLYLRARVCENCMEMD

Kd (recombinant CD3 proteins [2]): 14.8 nM
koff (recombinant CD3 proteins [2]): 0.00516 s⁻¹
kon (recombinant CD3 proteins [2]): 349000 M⁻¹ s⁻¹
B2: CD3 × CD33-BspAb93 (bispecific antibody)
chain 1: NFMLTQPHSVSESPGKTVTISCTRSSGSIASKYVQWYQQRPGSSPTTVIYEDNQRPSGVPDRFSGSIDSSSNSASLTISGLKTEDEADYYCQSYYSNNRVFGCGTKLTVLGGGGSGGGGSGGGGSGGGGSEVQLVESGGGLVQPGGSLRLSCAASGFTFSRYSMNWVRQAPGKCLEWVSYISRSSTTIYYADSVKGRFTISRDNAKNSLYLQMNSLRDEDAAVYYCARERWELLYFDYWGQGTLVTVSSDKTHTCPPCPAPEFEGGPSVFLFPPKPKDTLMISRTPEVTCVVVDVSHEDPEVKFNWYVDGVEVHNAKTKPREEQYNSTYRVVSVLTVLHQDWLNGKEYKCKVSNKALPASIEKTISKAKGQPREPQVYTLPPCREEMTKNQVSLWCLVKGFYPSDIAVEWESNGQPENNYKTTPPVLDSDGSFFLYSKLTVDKSRWQQGNVFSCSVMHEALHNHYTQKSLSLSPGK
chain 2: EVQLVQSGAEVKKPGSSVKVSCKASGYTITDSNIHWVRQAPGQSLEWIGYIYPYNGGTDYNQKFKNRATLTVDNPTNTAYMELSSLRSEDTAFYYCVNGNPWLAYWGQGTLVTVSSASTKGPSVFPLAPSSKSTSGGTAALGCLVKDYFPEPVTVSWNSGALTSGVHTFPAVLQSSGLYSLSSVVTVPSSSLGTQTYICNVNHKPSNTKVDKRVEPKSCDKTHTCPPCPAPEFEGGPSVFLFPPKPKDTLMISRTPEVTCVVVDVSHEDPEVKFNWYVDGVEVHNAKTKPREEQYNSTYRVVSVLTVLHQDWLNGKEYKCKVSNKALPASIEKTISKAKGQPREPQVCTLPPSREEMTKNQVSLSCAVKGFYPSDIAVEWESNGQPENNYKTTPPVLDSDGSFFLVSKLTVDKSRWQQGNVFSCSVMHEALHNRFTQKSLSLSPGK
chain 3: DIQLTQSPSTLSASVGDRVTITCRASESLDNYGIRFLTWFQQKPGKAPKLLMYAASNQGSGVPSRFSGSGSGTEFTLTISSLQPDDFATYYCQQTKEVPWSFGQGTKVEVKRTVAAPSVFIFPPSDEQLKSGTASVVCLLNNFYPREAKVQWKVDNALQSGNSQESVTEQDSKDSTYSLSSTLTLSKADYEKHKVYACEVTHQGLSSPVTKSFNRGEC

Kd (recombinant CD3 proteins [3]): 24.4 nM
koff (recombinant CD3 proteins [3]): 0.0578 s⁻¹
kon (recombinant CD3 proteins [3]): 2.37e+06 M⁻¹ s⁻¹
B3: CD3 × CD33-BspAb89 (bispecific antibody)
chain 1: not shown
chain 2: B2 chain 2
chain 3: B2 chain 3

Kd (recombinant CD3 proteins [5]): 645 nM
koff (recombinant CD3 proteins [5]): 0.0738 s⁻¹
kon (recombinant CD3 proteins [5]): 115000 M⁻¹ s⁻¹
B5: CD3 × CD33-BspAb94 (bispecific antibody)
chain 1: NFMLTQPHSVSESPGKTVTISCTRSSGSIASNYVQWYQQRPGSSPTTVIYEDNQRPSGVPDRFSGSIDSSSNSASLTISGLKTEDEADYYCQSYDSSNRVFGCGTKLTVLGGGGSGGGGSGGGGSGGGGSEVQLVESGGGLVKPGGSLRLSCAASGFTFSSYTMNWVRQAPGKCLEWVSSITTSSSYIYYADSVKGRFTISRDNAKNSLYLQMNSLRAEDTAVYYCARVTFDAFDIWGQGTMVTVSSDKTHTCPPCPAPEFEGGPSVFLFPPKPKDTLMISRTPEVTCVVVDVSHEDPEVKFNWYVDGVEVHNAKTKPREEQYNSTYRVVSVLTVLHQDWLNGKEYKCKVSNKALPASIEKTISKAKGQPREPQVYTLPPCREEMTKNQVSLWCLVKGFYPSDIAVEWESNGQPENNYKTTPPVLDSDGSFFLYSKLTVDKSRWQQGNVFSCSVMHEALHNHYTQKSLSLSPGK
chain 2: B2 chain 2
chain 3: B2 chain 3

Kd (recombinant CD3 proteins [7]): 63.8 nM
koff (recombinant CD3 proteins [7]): 0.00203 s⁻¹
kon (recombinant CD3 proteins [7]): 31900 M⁻¹ s⁻¹
B7: CD3 × CD33-BspAb91 (bispecific antibody)
chain 1: DIQMTQSPSTLSASVGDRVTITCRASQSISSWLAWFQQKTGKAPKLLIYKASSLESGVPSRFSGSGSGTEFTLTISSLQPDDFATYYCQQYISYSWTFGCGTKVEIKGGGGSGGGGSGGGGSGGGGSEVQLVESGGGLVQRGGSLRLSCAASGFTFSNYWMSWVRQAPGKCLEWVANIKEDGSEKYYVDSVKGRFTISRDNAKHSLYLQMNSLRAEDTAVYYCARERRTGYFDYWGQGTLVTVSSDKTHTCPPCPAPEFEGGPSVFLFPPKPKDTLMISRTPEVTCVVVDVSHEDPEVKFNWYVDGVEVHNAKTKPREEQYNSTYRVVSVLTVLHQDWLNGKEYKCKVSNKALPASIEKTISKAKGQPREPQVYTLPPCREEMTKNQVSLWCLVKGFYPSDIAVEWESNGQPENNYKTTPPVLDSDGSFFLYSKLTVDKSRWQQGNVFSCSVMHEALHNHYTQKSLSLSPGK
chain 2: B2 chain 2
chain 3: B2 chain 3

Kd (recombinant CD3 proteins [8]): 43.8 nM
koff (recombinant CD3 proteins [8]): 0.00051 s⁻¹
kon (recombinant CD3 proteins [8]): 11600 M⁻¹ s⁻¹
B8: CD3 × CD33-BspAb92 (bispecific antibody)
chain 1: not shown
chain 2: B2 chain 2
chain 3: B2 chain 3

Kd (recombinant CD3 proteins [10]): 334 nM
koff (recombinant CD3 proteins [10]): 0.00459 s⁻¹
kon (recombinant CD3 proteins [10]): 13800 M⁻¹ s⁻¹
B10: CD3 × CD33-BspAb90 (bispecific antibody)
chain 1: not shown
chain 2: B2 chain 2
chain 3: B2 chain 3

Continued, binder first:

B1: CD3 × CD33-BspAb85 (bispecific antibody)
chain 1: EVQLVESGGGLVKPGGSLRLSCAASGFTFSSYSMNWVRQAPGKCLEWVSSISRSSGYIFYADSVKGRFTISRDNAKNSLYLQMNSLRAEDTAVYYCVRERVGAGFDYWGQGTLVTVSSGGGGSGGGGSGGGGSGGGGSNFMLTQPHSVSESPGKTVAISCTRSSGSIASNYVQWYQQRPGSSPTAVIYEDNQRPSGVPDRFSGSIDSSSNSAFLTISGLKTEDEADYYCQSYDSSNRVFGCGTKLTVLDKTHTCPPCPAPEFEGGPSVFLFPPKPKDTLMISRTPEVTCVVVDVSHEDPEVKFNWYVDGVEVHNAKTKPREEQYNSTYRVVSVLTVLHQDWLNGKEYKCKVSNKALPASIEKTISKAKGQPREPQVYTLPPCREEMTKNQVSLWCLVKGFYPSDIAVEWESNGQPENNYKTTPPVLDSDGSFFLYSKLTVDKSRWQQGNVFSCSVMHEALHNHYTQKSLSLSPGK
chain 2: B2 chain 2
chain 3: B2 chain 3
Kd (recombinant CD3 proteins [1]): 60.8 nM
koff (recombinant CD3 proteins [1]): 0.0149 s⁻¹
kon (recombinant CD3 proteins [1]): 246000 M⁻¹ s⁻¹

B4: CD3 × CD33-BspAb87 (bispecific antibody)
chain 1: EVQLVESGGGLVKPGGSLRLSCAASGFTVSNYSMNWVRQAPGKCLEWVSSISRSSSYIYYADSVKGRFTISRDNAKNSLFLQMNSLRAEDTAVYYCARERWELLYFDYWGQGTLVTVSSGGGGSGGGGSGGGGSGGGGSQTVVTQEPSFSVSPGGTVTLTCGLSSGSVSTSYYPSWYQQTPGQAPRTLIYSTNTRSSGVPDRFSGSILGNKAALTITGAQADDESDYYCVLYMGSGIWVFGCGTKLTVLDKTHTCPPCPAPEFEGGPSVFLFPPKPKDTLMISRTPEVTCVVVDVSHEDPEVKFNWYVDGVEVHNAKTKPREEQYNSTYRVVSVLTVLHQDWLNGKEYKCKVSNKALPASIEKTISKAKGQPREPQVYTLPPCREEMTKNQVSLWCLVKGFYPSDIAVEWESNGQPENNYKTTPPVLDSDGSFFLYSKLTVDKSRWQQGNVFSCSVMHEALHNHYTQKSLSLSPGK
chain 2: B2 chain 2
chain 3: B2 chain 3
Kd (recombinant CD3 proteins [4]): 5.17 nM
koff (recombinant CD3 proteins [4]): 0.00307 s⁻¹
kon (recombinant CD3 proteins [4]): 594000 M⁻¹ s⁻¹

B6: CD3 × CD33-BspAb86 (bispecific antibody)
chain 1: EVQLVESGGGLVKPGGSLRLSCAASGFTFSSYSMNWVRQAPGKCLEWVSSISRSGTYIYYADSVKGRFTISRDNAKNSLYLQMNSLRAEDTAVYYCARERWELLYFDYWGQGTLVTVSSGGGGSGGGGSGGGGSGGGGSQTVVTQEPSLTVSPGGTVTLTCASSTGAVTSGYYPNWFQQKPGQAPRALIYSTSNKHSWTPARFSGSLLGGKAALTLSGVQPEDEAEYYCLLYYGGAYVFGCGTKVTVLDKTHTCPPCPAPEFEGGPSVFLFPPKPKDTLMISRTPEVTCVVVDVSHEDPEVKFNWYVDGVEVHNAKTKPREEQYNSTYRVVSVLTVLHQDWLNGKEYKCKVSNKALPASIEKTISKAKGQPREPQVYTLPPCREEMTKNQVSLWCLVKGFYPSDIAVEWESNGQPENNYKTTPPVLDSDGSFFLYSKLTVDKSRWQQGNVFSCSVMHEALHNHYTQKSLSLSPGK
chain 2: B2 chain 2
chain 3: B2 chain 3
Kd (recombinant CD3 proteins [6]): 54.2 nM
koff (recombinant CD3 proteins [6]): 0.0149 s⁻¹
kon (recombinant CD3 proteins [6]): 276000 M⁻¹ s⁻¹

B9: CD3 × CD33-BspAb88 (bispecific antibody)
chain 1: QVQLVQSGAEVKKPGASLKVSCKASGYTFTSYYMHWVRQAPGQCLEWMGIINPSNGNTISAQKFQGRVTMTRDTSTSTVYMEMSSLRSEDTAVYYCVRSWGYYVMDVWGQGTTVTVSSGGGGSGGGGSGGGGSGGGGSQTVVTQEPSFSVSPGGTVTLTCGLNSGSVSTSYYPSWYQQTPGQTPRTLIYSTNTRSSGVPDRFSGSILGNKAALTITGAQADDESDYYCVLYMGSGIWVFGCGTKLTVLDKTHTCPPCPAPEFEGGPSVFLFPPKPKDTLMISRTPEVTCVVVDVSHEDPEVKFNWYVDGVEVHNAKTKPREEQYNSTYRVVSVLTVLHQDWLNGKEYKCKVSNKALPASIEKTISKAKGQPREPQVYTLPPCREEMTKNQVSLWCLVKGFYPSDIAVEWESNGQPENNYKTTPPVLDSDGSFFLYSKLTVDKSRWQQGNVFSCSVMHEALHNHYTQKSLSLSPGK
chain 2: B2 chain 2
chain 3: B2 chain 3
Kd (recombinant CD3 proteins [9]): 12.6 nM
koff (recombinant CD3 proteins [9]): 0.000778 s⁻¹
kon (recombinant CD3 proteins [9]): 61800 M⁻¹ s⁻¹
